Here are results for 1 molecule from publication PMC10749193 (Frontiers in Immunology, 2023).

This assay addresses SARS-CoV-2 S2 subunit ectodomain (S2-ECD, 686–1213 aa) (SARS-CoV-2 Wuhan, UniProt P0DTC2). Description: ELISA. To be noted: both partners purified. Background: An ELISA detects its analyte on a solid surface through an enzyme-linked reagent.

B1: anti-S2 monoclonal antibody 4A5 (antibody, V domains shown)
VH: QVKLEQSGPGILQPSQTLSLTCSFSGFSLSTSGMGVSWIRQSSGKGLEWLTHIYWDDDKRYNPSLKSRLTISKDTSRNQVFLKITSVDTADTATYYCARRRMITGLYYAMDYWGQGTSVTVSS
VL: DIVMTQSTLSLPVSFGDQVSISCRSSQSLANSYGITYLSWYLHKPGQSPQLLIYGISNRFSGVPDRFSGSGSGTDFTLKISTIKPEDLGMYYCLQGTHQPWTFGGGTKLEIK
As to B1, the binding result is on record as “binds”.
